Test results as given in patent US7811561 (dated 2010).

B1: cdk4 (protein)
chain: AATRYEPVAEIGVGAYGTVYKARDPHSGHFVALKSVRVPNGGAAGGGLPVSTVREVALLRRLEAFEHPNVVRLMDVCATSRTDRDIKVTLVFEHIDQDLRTYLDKAPPPGLPVETIKDLMRQFLSGLDFLHANCIVHRDLKPENILVTSNGTVKLADFGLARIYSYQMALTPVVVTLWYRAPEVLLQSTYATPVDMWSVGCIFAEMFRRKPLFCGNSEADQLGKIFDLIGLPPEDDWPREVSLPRGAFAPRGPRPVQSVVPEMEESGAQLLLEMLTFNPHKRISAFRALQHSYLHKEESDAE
B2: cdk6 (protein)
chain: MEKDSLSRADQQYECVAEIGEGAYGKVFKARDLKNGGRFVALKRVRVQTSEEGMPLSTIREVAVLRHLETFEHPNVVRLFDVCTVSRTDRETKLTLVFEHVDQDLTTYLDKVPEPGVPTETIKDMMFQLLRGLDFLHSHRVVHRDLKPQNILVTSSGQIKLADFGLARIYSFQMALTSVVVTLWYRAPEVLLQSSYATPVDLWSVGCIFAEMFRRKPLFRGSSDVDQLGKILDIIGLPGEEDWPRDVALPRQAFHSKSAQPIEKFVTDIDELGKDLLLKCLTFNPAKRISAYGALNHPYFQDLERYKDNLNSHLPSNQSTSELNTA
B3: MCT-1 (Multiple Copies in T-cell malignancy) protein (other)
chain: MFKKFDEKENVSNCIQLKTSVIKGIKNQLIEQFPGIEPWLNQIMPKKDPVKIVRCHEHIEILTVNGELLFFRQREGPFYPTLRLLHKYPFILPHQQVDKGAIKFVLSGANIMCPGLTSPGAKLYPAAVDTIVAIMAEGKQHALCVGVMKMSAEDIEKVNKGIGIENIHYLNDGLWHMKTYK
notes: Expressed from the full length MCT-1 cDNA (pCMV-MCT-1) in stably transfected NIH 3T3 fibroblasts and tested in cell lysates

What was measured:
[1] = molecular target: GST-RB (source of Rb protein substrate)
cyclin D1 = molecular target: T1, cyclin D1 (UniProt P25322 1-295); assay: co-immunoprecipitation and immunoblotting, NIH 3T3 cell lysates
T1 construct: Immunoprecipitated from NIH 3T3 lysates
T1 sequence (P25322 whole entry): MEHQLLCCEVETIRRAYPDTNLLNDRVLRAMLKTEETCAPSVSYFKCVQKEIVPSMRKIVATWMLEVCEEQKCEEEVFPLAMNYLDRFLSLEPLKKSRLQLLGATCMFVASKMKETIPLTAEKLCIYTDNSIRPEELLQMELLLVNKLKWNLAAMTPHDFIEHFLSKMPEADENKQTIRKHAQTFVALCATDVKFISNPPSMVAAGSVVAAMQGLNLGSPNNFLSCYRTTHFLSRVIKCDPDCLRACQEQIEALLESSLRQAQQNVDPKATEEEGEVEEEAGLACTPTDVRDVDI
Description: (§1) TBS was Tris-buffered saline containing 0.1% (w/v) sodium dodecyl sulfate. Samples were pre-cleared with Protein-G beads (GIBCO, Grand Island, N.Y.) and either normal rabbit or mouse serum (each at a 1:1000 dilution). Immunoprecipitation of cyclin D1 was carried out for 12 hours at 4° C. Immune complexes were precipitated using 1 to 5 micrograms of antibody and Protein-G agarose, and were then heated at 95° C. for 5 minutes in IP buffer, which comprised 93 millimolar Tris, 3% (w/v) SDS, 1.1 millimolar β-mercaptoethanol, 0.03% (w/v) bromophenol blue (BPB), and 15% (v/v) glycerol (SIGMA, Saint Louis, Mo.) at a pH of 6.8. The eluant was analyzed using a denaturing, reducing SDS-PAGE gel, and the contents of the gel were transferred to supported nitrocellulose filter by electroblotting. Filters were incubated with 1 to 5 micrograms of an antibody which binds specifically with one of the following: cyclin D1, cdk4, cdk6, PCNA, and p21. Horseradish peroxidase-linked anti-mouse or anti-rabbit whole antibody was used as a secondary antibody. Chemiluminescence was detected using an ECL™ kit (Amersham Life Science, Arlington Heights, Ill.) according to the manufacturer's instruction.
(§2) An increased level of cyclin D1 protein was detected by immunoprecipitation in lysates from NIH 3T3 cells transfected with PCMV-MCT-1, relative to asynchronously grown control cells which were not transfected or which were transfected with control vector. Because cdk4 and cdk6 associate with cyclin D1 during cell cycle progression, complex formation among these molecules was investigated using co-immunoprecipitation analysis. Increased subunit complex formation in NIH 3T3 cells constitutively expressing MCT-1, relative to cells which were not transfected with a vector encoding MCT-1. Physical interaction of PCNA with cyclin D1-cdk4/cdk6 complexes was also investigated. Co-immunoprecipitation of cyclin D1 and PCNA was detected at an increased level, relative to cells which were not transfected with a vector encoding MCT-1. Direct physical interaction was not detected between MCT-1 and any of proteins cyclin D1, cdk4, cdk6, and PCNA under these assay conditions.

cdk4 = molecular target: T2, cdk4 (UniProt P30285 2-303); assay: as above
T2 sequence (looked up): B1 chain
Description: as §1, §2

cdk6 = cdk6 (UniProt Q64261 1-326); assay: as above
Description: as §1, §2

PCNA = PCNA (UniProt P17918 1-261); assay: as above
Chain of PCNA (P17918 whole entry): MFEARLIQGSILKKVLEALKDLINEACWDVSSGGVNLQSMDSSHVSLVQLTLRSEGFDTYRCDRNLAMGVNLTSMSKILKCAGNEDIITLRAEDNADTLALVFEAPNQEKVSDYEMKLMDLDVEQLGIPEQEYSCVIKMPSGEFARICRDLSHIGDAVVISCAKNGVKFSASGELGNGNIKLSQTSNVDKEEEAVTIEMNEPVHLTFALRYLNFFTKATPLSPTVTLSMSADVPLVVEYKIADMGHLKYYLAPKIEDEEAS
Description: as §1, §2

Binder	in vitro immune complex kinase assay (32P phosphorylation of Rb protein) [1]	binding result (cyclin D1)	binding result (cdk4)	binding result (cdk6)	binding result (PCNA)
B1	A markedly increased ability to phosphorylate Rb protein	–	–	–	–
B2	A markedly increased ability to phosphorylate Rb protein	–	–	–	–
B3	–	no binding	no binding	no binding	no binding
